Laboratory results as given in patent publication US7291492.

Tests used:
[1] = target: [3H]acetyl-labelled peptide corresponding to the N-Terminus of histone H4, P62805
[2] = target: [3H]acetyl-labelled peptide corresponding to the N-Terminus of Histone H3, P68431

B1: N-Terminus flag tagged HDAC9 (protein)
chain: MHSMISSVDVKSEVPVGLEPISPLDLRTDLRMMMPVVDPVVREKQLQQELLLIQQQQQIQKQLLIAEFQKQHENLTRQHQAQLQEHIKLQQELLAIKQQQELLEKEQKLEQQRQEQEVERHRREQQLPPLRGKDRGRERAVASTEVKQKLQEFLLSKSATKDTPTNGKNHSVSRHPKLWYTAAHHTSLDQSSPPLSGTSPSYKYTLPGAQDAKDDFPLRKTASEPNLKVRSRLKQKVAERRSSPLLRRKDGNVVTSFKKRMFEVTESSVSSSSPGSGPSSPNNGPTGSVTENETSVLPPTPHAEQMVSQQRILIHEDSMNLLSLYTSPSLPNITLGLPAVPSQLNASNSLKEKQKCETQTLRQGVPLPGQYGGSIPASSSHPHVTLEGKPPNSSHQALLQHLLLKEQMRQQKLLVAGGVPLHPQSPLATKERISPGIRGTHKLPRHRPLNRTQSAPLPQSTLAQLVIQQQHQQFLEKQKQYQQQIHMNKLLSKSIEQLKQPGSHLEEAEEELQGDQAMQEDRAPSSGNSTRSDSSACVDDTLGQVGAVKVKEEPVDSDEDAQIQEMESGEQAAFMQQPFLEPTHTRALSVRQAPLAAVGMDGLEKHRLVSRTHSSPAASVLPHPAMDRPLQPGSATGIAYDPLMLKHQCVCGNSTTHPEHAGRIQSIWSRLQETGLLNKCERIQGRKASLEEIQLVHSEHHSLLYGTNPLDGQKLDPRILLGDDSQKFFSSLPCGGLGVDSDTIWNELRSSGAARMAVGCVIELASKVASGELKNGFAVVRPPGHHAEESTAMGFCFFNSVAITAKYLRDQLNISKILIVDLDVHHGNGTQQAFYADPSILYISLHRYDEGNFFPGSGAPNEVGTGLGEGYNINIAWTGGLDPPMGDVEYLEAFRTIVKPVAKEFDPDMVLVSAGFDALEGHTPPLGGYKVTAKCFGHLTKQLMTLADGRVVLALEGGHDLTAICDASEACVNALLGNELEPLAEDILHQSPNMNAVISLQKIIEIQSKYWKSVRMVAVPRGCALAGAQLQEETETVSALASLTVDVEQPFAQEDSRTAGEPMEEEPAL
With B1 the “histone deacetylase activity (release of [3H]acetate from the peptide), relative to HDAC1” value [1] was “HDAC9 contains about 25% activity of HDAC1”, the “histone deacetylase activity (release of [3H]acetate from the peptide), relative to HDACs 4 and 5” value [1] was 50% activity of HDACs 4 and 5 and the “histone deacetylase activity (release of [3H]acetate from the peptide)” value [2] was “Higher activities of HDAC9 have been detected towards peptide substrates derived from histone H3 than from histone H4”.
